Paper doi:10.1101/2020.05.04.076190

Molecular target: MycWT bHLH-LZ;Max bHLH-LZ (p21 isoform) (human?;, UniProt P01106;P61244 ;, |)
Assay: EMSA

B1: CACGTG E-box probe (dsDNA)
DNA 1: GCGCGGGCACGTGGGCCGGGG
DNA 2: CCCCGGCCCACGTGCCCGCGC
binding result: binds
